Measurements from EP4729546A1 (Jiangsu BioJeTay Biotechnology Co., Ltd., dated 2026).
Changes are numbered by the printed parent chain.

B1: FX-Y17 (antibody, V domains shown)
VH: EVQLLESGGGLVQPGGSLRLSCAGSGFSFGSQTMSWVRQAPGKGLEWVSSISVISGRTYYADSVKGRFTISRDNSKNTLYLQMNSLRAEDTAVYYCTKSHAFDVWGQGTMVTVSS
VL: EIVLTQSPATLSVSPGERATLSCRASQSVYSNLAWYQQKPGQAPRLLIYGASTRATGIPARFSGSGSGTEFTLTISSLQSEDFAVYYCQQYNKWPLSFGGGTKVEIK
B2: FX-Y39 (antibody, V domains shown)
VH: QVQLQQSGGGLVQTGGSLRLACAGTGFTFSDYSMNWVRQAPGKGLEWVSYISNSRSRSSKYYADSVKGRFTISRDNAKNSLYLQMNSLRAEDTAVYYCARIGYCKNGVCGGAYDYWGQGTLVTVSS
VL: EIVLTQSPSAMSASVGDRVTITCRASQAIRNNLAWFQQKPGKVPKRLMNTASSLESGVPSRFSGSGSGTEFTLTITSLQPEDFASYYCLQYHDSPWTFGQGTKLEIK
B3: FX-Y17-Y17 (antibody, V domains shown)
VH: B1 VH with V53Y, S99G
VL: B1 VL with Y30W, N92H
B4: FX-Y17-Y21 (antibody, V domains shown)
VH: B1 VH with V53H, T97A
VL: B1 VL with N32A, Y91N
B5: FX-Y17-Y46 (antibody, V domains shown)
VH: B1 VH with V53Y, S99G
VL: B1 VL with Y30W, N92Q
B6: FX-Y17-Y4 (antibody, V domains shown)
VH: B1 VH with I51S, S52H
VL: B1 VL with S31Y, N92H
B7: FX-Y17-Y15 (antibody, V domains shown)
VH: B1 VH with T58P
VL: B1 VL with N32A, N92H
B8: FX-Y17-Y45 (antibody, V domains shown)
VH: B1 VH with V53H, T97A
VL: B1 VL with N32A, Y91N, K93R
B9: FX-Y17-Y18 (antibody, V domains shown)
VH: B1 VH with T58S, S99H
VL: B1 VL with Y30W, N92H
B10: FX-Y17-Y1 (antibody, V domains shown)
VH: B1 VH with G56R
VL: B1 VL with N32A, N92H
B11: FX-Y17-Y19 (antibody, V domains shown)
VH: B1 VH with G56K, K98R
VL: B1 VL with N32A, N92H
B12: FX-Y17-Y20 (antibody, V domains shown)
VH: B1 VH with T58S
VL: B1 VL with N32A, N92H
B13: FX-Y17-Y23 (antibody, V domains shown)
VH: B1 VH with T58S, K98R
VL: B1 VL with Y30W, N92H
B14: FX-Y17-Y22 (antibody, V domains shown)
VH: B1 VH with V53Y, K98R
VL: B1 VL with Y30W, N92H
B15: FX-Y17-Y16 (antibody, V domains shown)
VH: B1 VH with T58S, T97A
VL: B1 VL with N32A, N92H
B16: FX-Y17-Y34 (antibody, V domains shown)
VH: B1 VH with G56R, K98R
VL: B1 VL with Y30W, N92H
B17: FX-Y17-Y28 (antibody, V domains shown)
VH: B1 VH with S99Q
VL: B1 VL with N32A, N92H
B18: FX-Y17-Y6 (antibody, V domains shown)
VH: B1 VH with V53Y
VL: B1 VL with N32A, N92H
B19: FX-Y17-Y38 (antibody, V domains shown)
VH: B1 VH with G56R, T97A
VL: B1 VL with N32A, N92H
B20: FX-Y17-Y26 (antibody, V domains shown)
VH: B1 VH
VL: B1 VL with N32A, N92H
B21: FX-Y17-Y36 (antibody, V domains shown)
VH: B1 VH with G56K
VL: B1 VL with N32A, N92H
B22: FX-Y17-Y24 (antibody, V domains shown)
VH: B1 VH with V53Y, S99G
VL: B1 VL with N32A, N92H
B23: FX-Y17-Y39 (antibody, V domains shown)
VH: B1 VH with V53H, A101D
VL: B1 VL with N32A, Y91N
B24: FX-Y17-Y50 (antibody, V domains shown)
VH: B1 VH with T58R
VL: B1 VL with N32A, N92H
B25: FX-Y17-Y33 (antibody, V domains shown)
VH: B1 VH with T58K
VL: B1 VL with N32A, N92H
B26: FX-Y17-Y47 (antibody, V domains shown)
VH: B1 VH with T58D, K98R
VL: B1 VL with N32A, N92H
B27: FX-Y17-Y41 (antibody, V domains shown)
VH: B1 VH with T58R, T97A
VL: B1 VL with N32A, N92H
B28: FX-Y17-Y51 (antibody, V domains shown)
VH: B1 VH with T58N, K98R
VL: B1 VL with N32A, N92H
B29: FX-Y17-Y48 (antibody, V domains shown)
VH: B1 VH with T58A, K98R
VL: B1 VL with N32A, N92H
B30: FX-Y17-Y35 (antibody, V domains shown)
VH: B1 VH with T58D, T97A
VL: B1 VL with N32A, N92H
B31: FX-Y17-Y42 (antibody, V domains shown)
VH: B1 VH with F29L, T58M
VL: B1 VL with N32A, N92H
B32: FX-Y17-Y43 (antibody, V domains shown)
VH: B1 VH with I51S, K98R
VL: B1 VL with N32A, N92H

molecular target: huFXII-his (human) (UniProt P00748); experiment: cell-based or functional assay

Compared with B1, B2 is 1.6-fold higher in IC50 of inhibition of cleavage of chemical substrate S2302 by FXIIa (OD405): 0.0251 µg/mL for the first, 0.0398 µg/mL for the second.

molecular target: huFXII-his (human) (UniProt P00748); experiment: cell-based or functional assay; remark: another data set of the same source

B1 and B3 are within 1.5-fold of each other in IC50 of inhibition of cleavage of chemical substrate S2302 by FXIIa (OD405): 0.0213 µg/mL for the first, 0.0199 µg/mL for the second.

First: B4
Second: B5
The IC50 of inhibition of cleavage of chemical substrate S2302 by FXIIa (OD405) of the first is 2.4-fold lower: 0.0132 µg/mL for the first, 0.0321 µg/mL for the second.

Compared with B6, B7 is 1.7-fold higher in IC50 of inhibition of cleavage of chemical substrate S2302 by FXIIa (OD405): 0.0116 µg/mL for the first, 0.0202 µg/mL for the second.

B8 and B9 are within 1.5-fold of each other in IC50 of inhibition of cleavage of chemical substrate S2302 by FXIIa (OD405): 0.0221 µg/mL for the first, 0.0242 µg/mL for the second.

B10 and B11 are within 1.5-fold of each other in IC50 of inhibition of cleavage of chemical substrate S2302 by FXIIa (OD405): 0.0237 µg/mL for the first, 0.0214 µg/mL for the second.

B12 and B13 are within 1.5-fold of each other in IC50 of inhibition of cleavage of chemical substrate S2302 by FXIIa (OD405): 0.0187 µg/mL for the first, 0.0129 µg/mL for the second.

B14 and B15 are within 1.5-fold of each other in IC50 of inhibition of cleavage of chemical substrate S2302 by FXIIa (OD405): 0.0202 µg/mL for the first, 0.021 µg/mL for the second.

molecular target: T1, FXIIa (purchased from Enzyme Research Lab) (UniProt P00748 20-615, limits assumed); experiment: cell-based or functional assay
T1 sequence (looked up): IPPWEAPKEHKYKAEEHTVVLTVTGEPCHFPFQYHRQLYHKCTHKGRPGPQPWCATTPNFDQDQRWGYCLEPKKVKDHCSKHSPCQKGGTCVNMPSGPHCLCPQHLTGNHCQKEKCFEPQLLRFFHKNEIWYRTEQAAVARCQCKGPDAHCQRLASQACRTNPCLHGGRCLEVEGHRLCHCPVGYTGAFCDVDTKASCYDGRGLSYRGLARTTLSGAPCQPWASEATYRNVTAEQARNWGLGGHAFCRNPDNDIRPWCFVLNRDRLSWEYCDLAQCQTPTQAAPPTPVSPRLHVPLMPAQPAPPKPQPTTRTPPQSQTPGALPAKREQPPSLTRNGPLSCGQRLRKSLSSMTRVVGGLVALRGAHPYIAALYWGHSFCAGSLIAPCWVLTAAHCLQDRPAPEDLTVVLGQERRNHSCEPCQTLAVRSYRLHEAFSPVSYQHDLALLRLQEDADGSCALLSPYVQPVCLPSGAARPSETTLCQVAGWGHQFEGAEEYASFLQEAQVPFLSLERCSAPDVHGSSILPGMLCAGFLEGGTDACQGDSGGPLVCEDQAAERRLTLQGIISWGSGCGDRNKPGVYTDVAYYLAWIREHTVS

Going from B6 to B16, the “IC50 of inhibition of the cleavage of PK proenzyme (prekallikrein) by FXIIa, read with pKa substrate CS-3102 (OD405)” value falls from 0.0306 µM to 0.0271 µM.

With B8 the “IC50 of inhibition of the cleavage of PK proenzyme (prekallikrein) by FXIIa, read with pKa substrate CS-3102 (OD405)” value was 0.0235 µM.

molecular target: huFXII-his (human) (UniProt P00748); experiment: ELISA, huFXII-his coated at 1 µg/ml, HRP anti-human secondary, OD450

Going from B3 to B4, the EC50 falls from 0.169 µg/mL to 0.101 µg/mL (1.7-fold).

B5 and B6 are within 1.5-fold of each other in EC50: 0.257 µg/mL for the first, 0.205 µg/mL for the second.

Going from B7 to B8, the EC50 rises from 0.131 µg/mL to 0.358 µg/mL (2.7-fold).

B9 and B10 are within 1.5-fold of each other in EC50: 0.172 µg/mL for the first, 0.151 µg/mL for the second.

B11 and B12 are within 1.5-fold of each other in EC50: 0.149 µg/mL for the first, 0.127 µg/mL for the second.

Going from B13 to B14, the EC50 rises from 0.0942 µg/mL to 0.187 µg/mL (2-fold).

Binder B15 has an EC50 of 0.125 µg/mL.

molecular target: T2, huFXII-his (human, UniProt P00748 20-615); experiment: cell-based or functional assay
T2 sequence (looked up): T1 sequence (looked up)

Compared with B17, B18 is 1.7-fold lower in “IC50 of inhibition of cleavage of chemical substrate S2302 by FXIIa (OD405)” value (“IC50 of inhibition of cleavage … (OD405)” below): 0.0267 µg/mL for the first, 0.0157 µg/mL for the second.

B19 and B20 are within 1.5-fold of each other in “IC50 of inhibition of cleavage … (OD405)” value: 0.016 µg/mL for the first, 0.0163 µg/mL for the second.

B21 and B22 are within 1.5-fold of each other in “IC50 of inhibition of cleavage … (OD405)” value: 0.0155 µg/mL for the first, 0.0166 µg/mL for the second.

B23 and B16 are within 1.5-fold of each other in “IC50 of inhibition of cleavage … (OD405)” value: 0.0422 µg/mL for the first, 0.0282 µg/mL for the second.

B24 and B25 are within 1.5-fold of each other in “IC50 of inhibition of cleavage … (OD405)” value: 0.0225 µg/mL for the first, 0.022 µg/mL for the second.

B26 and B27 are within 1.5-fold of each other in “IC50 of inhibition of cleavage … (OD405)” value: 0.0179 µg/mL for the first, 0.019 µg/mL for the second.

B28 and B29 are within 1.5-fold of each other in “IC50 of inhibition of cleavage … (OD405)” value: 0.0155 µg/mL for the first, 0.0141 µg/mL for the second.

B30 and B31 are within 1.5-fold of each other in “IC50 of inhibition of cleavage … (OD405)” value: 0.0139 µg/mL for the first, 0.0177 µg/mL for the second.

With B32 the “IC50 of inhibition of cleavage … (OD405)” value was 0.0146 µg/mL.
